What was measured:
[1] = target: Cp149.G123A (Hepatitis B virus) (UniProt P03147); experiment: SEC
[2] = target: Cp149.G123A (Hepatitis B virus) (UniProt P03147); experiment: AUC
[3] = target: Cp149.Y132A.G123A.R127A (Hepatitis B virus) (UniProt P03147); experiment: AUC
[4] = target: Cp149.S141A (Hepatitis B virus) (UniProt P03147); experiment: AUC
[5] = target: Cp(−10)149.5A (Hepatitis B virus) (UniProt P03147); experiment: cross-linking
[6] = target: Cp149.G123A.T114A (Hepatitis B virus) (UniProt P03147); experiment: AUC
[7] = target: Cp149.R127A (Hepatitis B virus) (UniProt P03147); experiment: AUC
[8] = target: Cp149.Y132A (Hepatitis B virus) (UniProt P03147); experiment: AUC
[9] = target: Cp(−10)149d.C(−7)A.C61.C48A.C107A (Hepatitis B virus) (UniProt P03147); experiment: cross-linking
[10] = target: Cp(−10)149d.C(−7)A.C61.C48A.C107A (Hepatitis B virus) (UniProt P03147); experiment: AUC
[11] = target: Cp(−10)149.G123A (Hepatitis B virus) (UniProt P03147); experiment: AUC
[12] = target: Cp149.T114A (Hepatitis B virus) (UniProt P03147); experiment: AUC
[13] = target: Cp149.R127A.G123A (Hepatitis B virus) (UniProt P03147); experiment: AUC
[14] = target: the molecule itself; experiment: AUC
[15] = target: the molecule itself; experiment: cross-linking

## Cp149.G123A (from UniProt P03147 1-149) (domain or fragment)
[1]
  stoichiometry N: 2
[2]
  stoichiometry N: 2

## Cp149.Y132A.G123A.R127A (from UniProt P03147 1-149) (domain or fragment)
[3]
  stoichiometry N: 2

## Cp149.S141A (from UniProt P03147 1-149) (domain or fragment)
[4]
  stoichiometry N: 2

## Cp(−10)149.5A (from UniProt P03147 1-149) (natural protein)
[5]
  stoichiometry N: 2

## Cp149.G123A.T114A (from UniProt P03147 1-149) (domain or fragment)
[6]
  stoichiometry N: 2

## Cp149.R127A (from UniProt P03147 1-149) (domain or fragment)
[7]
  stoichiometry N: 2

## Cp149.Y132A (from UniProt P03147 1-149) (domain or fragment)
[8]
  stoichiometry N: 2

## Cp(−10)149d.C(−7)A.C61.C48A.C107A (from UniProt P03147 1-149) (natural protein)
[9]
  stoichiometry N: 2
[10]
  stoichiometry N: 2

## Cp(−10)149.G123A (from UniProt P03147 1-149) (natural protein)
[11]
  stoichiometry N: 2

## Cp149.T114A (from UniProt P03147 1-149) (domain or fragment)
[12]
  stoichiometry N: 2

## Cp149.R127A.G123A (from UniProt P03147 1-149) (domain or fragment)
[13]
  stoichiometry N: 2

B1: Cp143 (domain or fragment)
chain: MDIDPYKEFGATVELLSFLPSDFFPSVRDLLDTAAALYRDALESPEHCSPHHTALRQAILCWGDLMTLATWVGTNLEDPASRDLVVSYVNTNVGLKFRQLLWFHISCLTFGRETVLEYLVSFGVWIRTPPAYRPPNAPILSTL
[14]
  stoichiometry N: 2

B2: Cp141 (domain or fragment)
chain: MDIDPYKEFGATVELLSFLPSDFFPSVRDLLDTAAALYRDALESPEHCSPHHTALRQAILCWGDLMTLATWVGTNLEDPASRDLVVSYVNTNVGLKFRQLLWFHISCLTFGRETVLEYLVSFGVWIRTPPAYRPPNAPILS
[14]
  stoichiometry N: 2

B3: Cp149.4A (domain or fragment)
chain: MDIDPYKEFGATVELLSFLPSDFFPSVRDLLDTAAALYRDALESPEHASPHHTALRQAILCWGDLMTLATWVGTNLEDPASRDLVVSYVNTNVGLKFRQLLWFHISALTFGRETVLEYLVSFAVWIATPPAYRPPNAPILSTLPETTVV
[15]
  stoichiometry N: 2

Source: publication PMC3095675 (Journal of molecular biology, 2011)
